For two molecules, Kd results are on record in publication PMC10868436.

For the assay, the target named is consensus sphingomyelinase. In words: BLI; ForteBio Octet RED96, […]; 1:1 binding model, […]; triplicate. (In general: Biolayer interferometry detects binding as a change in optical thickness at a sensor tip.)

The Kd is the equilibrium constant for the complex coming apart. A low value points to higher affinity.

B1: TPL0674_03_F05 (scFv, V domains shown)
VH: EVQLVQSGAEVKKPGASVRVSCKASGYSITNYGISWVRQAPGQGLEWMGWINTYNGNTNYAQKFQGRVTMTRDTSISTAYMELSRLRSDDTAVYYCARDHPYRGMDVWGQGTLVTVSS
VL: SYELTQDPAVSVALGQTVRITCQGDSLRSYYASWYQQKPGQAPVLVIYGKNNRPSGIPDRFSGSSSGNTASLTITGAQAEDEADYYCNSRDSSGNHPHVVFGGGTKLTVL
For B1, the equilibrium dissociation constant (Kd) was found to be 60.2 nM.

B2: TPL0674_03_A04 (scFv, V domains shown)
VH: QVQLVQSGSELKKPGASVKVSCKASGYTFTSYAMNWVRQAPGQGLEWMGWINTNTGNPTYAQGFTGRFVFSLDTSVSTAYLQISSLKAEDTAVYYCARDQGGDRHFGYWGQGTTVTVSS
VL: QSELTQPPSASGTPGQRVTISCSGSSSNIGSHRVNWYQQLPGTAPKLLIYSNYHRPAGVPDRFSASKSGTSASLAISGLQSEDEADYYCAAWDDSLNGYVFGTGTQLTVL
The molecule B2 had a Kd of 31.5 nM.
